Assay [1] has as its target EGFP-rGR as used in the number and brightness assay (Fig 7) and in the ccN&B with alternative ligands (Fig 9) (rat) (UniProt P06536). Description: number and brightness assay (N&B); living 3617 cells, transiently transfected, nucleoplasm, 100 nM corticosterone; average molecular brightness (ε) in one channel with different co-expressed partners.
For assay [2] the target is unchanged. Description: cross-correlation number and brightness assay (ccN&B); living 3617 cells +tetracycline, transiently transfected, nuclear Bcc relative to 100 nM corticosterone (100%); 100 nM of alternative ligands (cortisol, prednisolone, dexamethasone, aldosterone) or dexamethasone 10 nM + aldosterone 10 nM, aldosterone 10 nM + RU486 1 μM, corticosterone 10 nM + RU486 1 μM.

A word on the stoichiometry N: it is a count of units in the complex or per binding partner.

In assay [1], “EGFP-rGR as used in the number and brightness assay (Fig 7) and in the ccN&B with alternative ligands (Fig 9) (from UniProt P06536 1-795) (receptor)” had an average molecular brightness (ε) of EGFP-rGR paired with mCherry-rGR, percent of the +mCherry reference of 63.3% and a stoichiometry N of 2.
As for “mCherry-tagged rat mineralocorticoid receptor, transiently expressed in 3617 cells (from UniProt P22199 1-981)”, in assay [2], the Bcc value with 100 nM cortisol, percent of the Bcc value with corticosterone was 70% and the Bcc value with 100 nM prednisolone, percent of the Bcc value with corticosterone came to 60%.

These data come from paper PMC6953809.
